Measurements published in article PMC11946523 (Toxins, 2025).

How the values were obtained:
[1] = target: Botulinum neurotoxin serotype A (BoNT/A) holotoxin (Clostridium botulinum serotype A, …, UniProt P0DPI1); experiment: SPR; Biacore; […] (50 ug/mL) […], in HBS-EP ([…]; 120 s flow, 600 s dissociation; […]; conditions: both partners purified
[2] = target: recombinant C-terminal domain of the BoNT/A heavy chain (heavy chain receptor domain, HCR) (Clostridium botulinum serotype A, …, UniProt P0DPI1); experiment: as above; conditions: both partners purified

B1: HZ45 humanized monoclonal antibody (antibody, V domains shown)
VH: EVQLVQSGAEVKKPGASVKVSCKASGYTFTDYYINWVRQATGQGLEWLGESYPGSGTAFYNEKFKGKATLTADKSKNTAYMELSSLRSEDTAVYFCARSDGSPFAYWGQGTLVTVSS
VL: DIQMTQSPSSLSASVGDRVTITCKASDYINNWLAWYQQKPGKAPKLLISGAISLETGVPSRFSGSGSGTDYTLTISSLQPEDFATYYCQQYWSPPLTFGQGTKVEIK
notes: also called HZ45 mAb; HZ45 antibody; source: CHO-K1, transfected, purified from culture medium (ammonium sulfate, HIC-Phenyl)
**Q.** Which results are given for B1?
**A.** Kd [1]: 0.551 nM; Kd [2]: 0.0423 nM
